± gives the standard deviation.
Experiment: protein stability index of a GFP-peptide fusion (GPS, HEK-293T) (PSI 1-6); higher = more stable
[1] = treatment: DMSO, c terminus: a fixed tail appended
[2] = treatment: MLN4924 1 uM, 8 h, c terminus: a fixed tail appended
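Further: 24-mer peptide tiles fused after GFP, lentivirally expressed, FACS-sorted into six equal bins by GFP/DsRed ratio, decoded by Illumina sequencing, PSI is the read-weighted mean bin number.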

TNTRSDLDVFGRGDNISDVSKFLE [LUC7L3]
protein stability index [1]: 4.67 ± 0.16 | protein stability index [2]: 4.76 ± 0.19

DSLKPEQLDIEEEGRPGAATFHVG [TFE3]
protein stability index [1]: 5.38 ± 0.093 | protein stability index [2]: 4.96 ± 0.4

DIHGLRKVIDDTNITRLQLETEIE [KRT18]
protein stability index [1]: 4.28 ± 0.28 | protein stability index [2]: 4.16 ± 0.46

EARSYLSEEMIAEFKAAFDMFDAD [TNNC2]
protein stability index [1]: 4.16 ± 0.46 | protein stability index [2]: 4.15 ± 0.23

FKLLDKNSSGDIGKKEIKPFKRFL [SMOC2]
protein stability index [1]: 2.54 ± 0.42 | protein stability index [2]: 3.01 ± 0.43

REIMEKFGKQPVSLPARRLKLRGR [CPXM2]
protein stability index [1]: 3.64 ± 0.16 | protein stability index [2]: 3.65 ± 0.088

AREGAGLVVASGVIYCLGGYDGLN [KLHL12]
protein stability index [1]: 2.81 ± 0.59 | protein stability index [2]: 2.39 ± 0.51

TPSVPPPASQHSTPAGLPPSRAKP [FBF1]
protein stability index [1]: 5.3 ± 0.25 | protein stability index [2]: 5.22 ± 0.23

EHVLMFAKLALYPCASLLAFASTC [TMEM175]
protein stability index [1]: 3.42 ± 0.23 | protein stability index [2]: 3.14 ± 0.5

GYQHVDLQNFSSSWSDGMAFCALV [SMTNL2]
protein stability index [1]: 2.16 ± 0.49 | protein stability index [2]: 2.01 ± 0.15

SRRLQLGSEENGRYFSLSLMSGAL [PCDHGC5]
protein stability index [1]: 2.27 ± 0.4 | protein stability index [2]: 2.3 ± 0.35

LIVPFGLLYSEVTASSLVKINLQG [ADD1]
protein stability index [1]: 3.03 ± 0.47 | protein stability index [2]: 2.88 ± 0.36

KENREEARFQDKQYSSHHTAEKRK [CHGB]
protein stability index [1]: 5.21 ± 0.41 | protein stability index [2]: 4.89 ± 0.34

LKRKNKQAFLDELESSDLPVALLL [MNAT1]
protein stability index [1]: 2.2 ± 0.42 | protein stability index [2]: 2 ± 0.3

DQIGSEIIEELGEQRDQLERTKSR [VTI1B]
protein stability index [1]: 5.53 ± 0.24 | protein stability index [2]: 5.47 ± 0.37

TRRVTFEADENENITVVKGIRLSE [CHCHD3]
protein stability index [1]: 4.29 ± 0.13 | protein stability index [2]: 4.47 ± 0.23

AAAGLHASPMSADRVVAFMDHIRI [NR2F2]
protein stability index [1]: 2.25 ± 0.4 | protein stability index [2]: 2.26 ± 0.34

YQELMSLKLALDMEIATYRKLLES [KRT71]
protein stability index [1]: 2.38 ± 0.32 | protein stability index [2]: 2.16 ± 0.22

TFGFITMTPQLFINYKLKSVAHLP [CLPTM1]
protein stability index [1]: 2.59 ± 0.47 | protein stability index [2]: 2.92 ± 0.86

GKWPQVLFFPEGTCSNKKALLKFK [LPCAT4]
protein stability index [1]: 2.52 ± 0.31 | protein stability index [2]: 2.57 ± 0.45

IQGNIEYSCPATNECEITKRRRKS [ESRRG]
protein stability index [1]: 4.85 ± 0.15 | protein stability index [2]: 5.13 ± 0.25

QETRGELQCRSPPRLHGAKAILDA [TBC1D10A]
protein stability index [1]: 4.55 ± 0.27 | protein stability index [2]: 4.62 ± 0.12

YVQTVDFMRTDNTCVNLLLEASNY [KLHL13]
protein stability index [1]: 2.6 ± 0.71 | protein stability index [2]: 2.6 ± 0.66

NGSYLELSSDRVANSSSEAPFPNV [ADAMTSL2]
protein stability index [1]: 4.52 ± 0.18 | protein stability index [2]: 4.28 ± 0.15

QAKTHTDSSEKELEPEAAEEALEN [ACBD3]
protein stability index [1]: 5.52 ± 0.2 | protein stability index [2]: 5.65 ± 0.24

KNDVFICGGYNGEVILGDIWKLNL [KLHDC10]
protein stability index [1]: 2.6 ± 0.84 | protein stability index [2]: 2.33 ± 0.74

LSASQKALKEKEKASWSSLSMDEK [COX4I1]
protein stability index [1]: 4.61 ± 0.28 | protein stability index [2]: 4.84 ± 0.22

KDREYTDIIRKQVLGTKVDAERDG [CDC34]
protein stability index [1]: 5.08 ± 0.21 | protein stability index [2]: 4.99 ± 0.18

AEFMRNFQKGQVTRDGFKLVMASL [HMOX1]
protein stability index [1]: 2.33 ± 0.75 | protein stability index [2]: 2.26 ± 0.16

SEFQAALSRKVAELVHFLLLKYRA [MAGEA3]
protein stability index [1]: 2.57 ± 0.56 | protein stability index [2]: 2.48 ± 0.51

YLAFAASNVRGSLNVNLNSVVLRR [DUSP5]
protein stability index [1]: 2.41 ± 0.24 | protein stability index [2]: 2.69 ± 0.24

RRTYLGGAAGRSQEPEVPCAAVLP [RSPH3]
protein stability index [1]: 4.37 ± 0.092 | protein stability index [2]: 4.37 ± 0.18

RPIIASISSGVVSIWAQNQVENWS [RBBP5]
protein stability index [1]: 2.22 ± 0.34 | protein stability index [2]: 2.26 ± 0.42

GALLAPIRVLLAFIVLFLLWPFAW [LPCAT4]
protein stability index [1]: 2.68 ± 0.51 | protein stability index [2]: 2.67 ± 0.54

QENEEKEQVANKGEPLALPLDAGE [BEX1]
protein stability index [1]: 5.59 ± 0.27 | protein stability index [2]: 5.48 ± 0.56

KKKKTKKIKEKYIDQEELNKTKPI [HSP90AB1]
protein stability index [1]: 4.28 ± 0.26 | protein stability index [2]: 4.53 ± 0.31

FVCQCYSGYALAEDGKRCVAVDYC [MATN2]
protein stability index [1]: 2.29 ± 0.93 | protein stability index [2]: 2.77 ± 0.46

NKPTMSFKDYIQERSDPVEQGKPV [ETS2]
protein stability index [1]: 4.75 ± 0.23 | protein stability index [2]: 4.83 ± 0.26

VDGPDLEMLTGQERVALANRKREC [FKBP8]
protein stability index [1]: 4.96 ± 0.16 | protein stability index [2]: 5.14 ± 0.2

VDYTGQAKAQVRKAVQYEEKNPCR [STX11]
protein stability index [1]: 4.37 ± 0.17 | protein stability index [2]: 4.59 ± 0.18

ALFKANRLEKAVAAAYTFLQRNPK [P3H4]
protein stability index [1]: 2.48 ± 0.27 | protein stability index [2]: 2.12 ± 0.53

TGILLHPWLRQDPMPLAPTRSHLW [TRIB3]
protein stability index [1]: 2.11 ± 0.25 | protein stability index [2]: 2.18 ± 0.089

FFEDGDVQRHLYLQDVIMQVADVP [ZNF511]
protein stability index [1]: 2.82 ± 0.29 | protein stability index [2]: 2.81 ± 0.43

FGSFLLLLFSLTQFSVVSVVAYLA [RTN1]
protein stability index [1]: 3.14 ± 0.62 | protein stability index [2]: 3.35 ± 0.6

YKPNPQIYVKLIEECTDLQKEGEF [OAS1]
protein stability index [1]: 3.54 ± 0.28 | protein stability index [2]: 3.53 ± 0.19

MPLEQRSQHCKPEEGLEARGEALG [MAGEA3]
protein stability index [1]: 5.34 ± 0.34 | protein stability index [2]: 5.39 ± 0.14

KRRPKREKHPKKPEPQQKAPLVPP [SRPK2]
protein stability index [1]: 4.948 ± 0.035 | protein stability index [2]: 4.99 ± 0.19

ERREALCRQLSESESSLEMDDERY [CCDC6]
protein stability index [1]: 5.41 ± 0.11 | protein stability index [2]: 5.27 ± 0.16

VIFQREQESKNQVHRRGEYNVYST [PPP2R2B]
protein stability index [1]: 3.06 ± 0.14 | protein stability index [2]: 3.04 ± 0.23

SQFSGTLMRTCERLVKEGRFVPSN [PPTC7]
protein stability index [1]: 3.12 ± 0.17 | protein stability index [2]: 3.04 ± 0.4

VEKQGDTIEYLKRHNALLSKRLLA [TMEM192]
protein stability index [1]: 2.87 ± 0.13 | protein stability index [2]: 2.93 ± 0.27

PTGLLALQQIADFMTTNVPNVYPA [ADD1]
protein stability index [1]: 2.1 ± 0.47 | protein stability index [2]: 2.14 ± 0.25

LDNTKKKMEIYQKENKDVIQKNKL [MNAT1]
protein stability index [1]: 4.44 ± 0.2 | protein stability index [2]: 4.34 ± 0.18

FSSDKAKAGSSEWLAVDGLVSPSN [ATF4]
protein stability index [1]: 3.8 ± 0.26 | protein stability index [2]: 4.08 ± 0.32

SLVGNLGISGTTTKKGDLQWNAGE [SNAP91]
protein stability index [1]: 3.54 ± 0.39 | protein stability index [2]: 3.62 ± 0.23

DDIRKGIVLLEELLPKGSKEEQRD [FIS1]
protein stability index [1]: 4.63 ± 0.43 | protein stability index [2]: 4.6 ± 0.27

FMGTISDVKTNVQLLKGRVDNIST [CD207]
protein stability index [1]: 3.02 ± 0.22 | protein stability index [2]: 3.12 ± 0.32

ALNFMKGCLKMNPDDRLTCSQLLE [CDKL4]
protein stability index [1]: 2.32 ± 0.18 | protein stability index [2]: 2.55 ± 0.38

NQLILTASADRTVIVWDGDTTRQV [WDR41]
protein stability index [1]: 2.79 ± 0.2 | protein stability index [2]: 3.12 ± 0.2

RLQVVKLLAKMFGAKDSELASQNK [PDS5B]
protein stability index [1]: 2.11 ± 0.34 | protein stability index [2]: 2.7 ± 0.075

CAPCPRRSEPVVQCQYPSGAEAG [IRX6]
protein stability index (treatment: DMSO, c terminus: native): 2.67 ± 0.7 | protein stability index (treatment: MLN4924 1 uM, 8 h, c terminus: native): 2.3 ± 0.41

ESEDDPVVKKIALREIRMLKQLKH [CDKL4]
protein stability index [1]: 2.96 ± 0.52 | protein stability index [2]: 3.08 ± 0.33

RTLASGRLLSYRGERVAARGYWGD [DNAAF3]
protein stability index [1]: 2.96 ± 0.17 | protein stability index [2]: 3.08 ± 0.19

MAVRLAGGLQKMVALLNKTNVKFL [CTNNB1]
protein stability index [1]: 2.871 ± 0.006 | protein stability index [2]: 2.63 ± 0.76

GWFWVCPGGGDICMYRHALPPGFV [ZC3H15]
protein stability index [1]: 2.83 ± 2.2 | protein stability index [2]: 2.57 ± 0.8

Reference: the supplement of paper PMC10567573
